Reference: a protein production outcome set (Wang et al. 2014)

Test: label from the status in PepcDB records

Sequence | protein production
MKAIIMAGGQGKRLRPLTCNLPKPMMPIMQKPVLQYIIELLKKHGINEIGITLHYLPDEVMDYFGDGKELGVNIHYFIEQSPLGTAGSVRNAESFLDETFVVISGDALTDVNLTNILQYHKEKNAMVTIVLKKVTIPLEYGVAITDTEGRISNFIEKPGWGEIFSDKANTGIYVMEPGIFEFYNKDKKFDFSEELFPELLKSGKEIFGYVVNDYWRDIGNIEQFMKCNFDILNGYVDVDVDIDASQHQKGVWIGKNTIVSDNVKVIPPVYIGDNSEIRYGAEIGPFAVIGRNNIISEMATIKRSIIFENCYIGSGAELRGSVVSNNVQVGGGVSTFEESAIGTGSLVGEKSVVKAGVKIWPDKVIGSKTIIKTNVVWGENRCKVLFGKEGISGEINVELTPEFVSKLASAFASNLRMNSKVVVCSDYNLAAEMLKYSFVSGLISMGIEVYSAKEMTIPMLRFSTAYFKADAAVYIYCKGSNKEKVNILFIDKDGIMISRSMEKKIANSFLREDFRRTRANNFKRLRDFGECMGYYEDYIKENLCIQEIRNSGLKVAVSMENKLIKNEVKSIFSDLKIQYSIYDNYADLEGLKKEVIEKKMDFGVCISENCDKAIIIDENANIISTQMYESIKALILISVYKFKTIVAPVNSSKALKYIAKRYNCKYVKSKISERYILNEYILNEKDKNIKEVLFSYLSSTDALNIVINIINILARGKIKLSELMERIPNYILREKEIACSWDNKGKIMRSLIEENISKSIELIEGIKVNYEDAWVLIIPDSDEPICKIYAESNDEEKTDKIINEFESEIELFMKN | failed
MKAKAILLASVLLVGCQTSQNTGNVQQHAQSLSAAGQGEAGKFTSQARWMDDGTSIAPDQDLWAFIGDELKMGIPENSRIREQKQKYLRNKSYLHDVTLRAEPYMYWIAGQVKKRNMPMELVLLPIVESAFDPHATSGANAAGIWQIIPSTGRNYGLKQTRNYDARRDVVASTTAALDMMQRLNKMFDGDWLLTVAAYNSGEGRVMRAIKANKARGKPTDFWSLSLPRETKLYVPKMLALSEILKNSKRYGVRLPTTDESRALARVRLNSPVEMAQVADMAGMSISKLKTFNAGVKGSTLGVSGPQYVMVPKKHAEQLRESLASGEIDAVQSQLIADNTPLNSRSYKVRSGDTLSGIASRLGVSTKDLQQWNNLRGSRLKIGQSLTVGAGSSAQRLANNSDSITYRVRKGDSLSSIARRHGVNIKDVMRWNHDTDNLQPGDQLTLFVKDNSTPDSLEHHHHHH | not failed
MKAKLENRLERQLQQLSYARGLILDEIGYLPMTSEEASLFFRLLNRRYEKASIILTSNKGFADWGEMFGDNVLATAILDRLLHHSTTLNIKGESYQLKEKRKVGALTKSATPISEDEMAESGQQK | failed
MKAKREQILIRTSWISTIGNAILSTSKIIVGLWAGSLAVLGDGIDSATDVIISIVMIFTARIISQPPSKKYVFGYEKAEGIATKILSLVIFYAGVQMLISSIGSIFSEEAKEIPSAIAIYVTIFSIIGKLLLALYQYKQGKKIDSSMLTANAINMRNDVIISSGVLLGLIFTFIFKLPILDSITGLIISLFIIKSSIGIFIDSNVELMDGVKDVNVYNKIFEAVETVPGASNPHRVRSRMIGNLYMITLDIEVNPQITITQAHQIADAVEKSIKSSIDNVYDILVHVEPAGECQTDEKFGIDKGMVN | failed
MKALEGFTILLALVGVIPRIEGCIRVPPGVTAAKSPVDDNYVLSVNGNTQSYVPGQRYNVSLSAFSGLSFISFMLALDLESGDGDGDANALGTWEIADLAETRFSPRCPNLVENTNTNVKTRVDVFWVAPSSPGQGCILLRATVMQHRDVWFMDDGFLTKRMCEEEVDDIDTQPSIVDPCCACDEAKYELTFEGKWSRHTHPKDFPANSWRTRFSDIIGASHTLDYRFWQYGELASEGLREVAEHGSTRTLESELKDQSEHIRTIIKARGIAYPNVTGKTFAVFRVDSNHHLISLVSMVDPSPDWIVGVSGLELCLPNCSWVENKVHNLYPWDAGTDSGPSYMSADQPQVPPDVVRRIKSNFPNDPRSPFYDPTGAQMKPLATLHINRRRLYEKNCESSDSEQVPPECATNSWSRWDECTTKCGPGKQYRIREFKNPALASRHRCNNALREEKNCVGHKCAGFNEETAEGGEPEVAPSPGSSDDPQCGLSDWSEWSSCTVTCGTGEMTRSRHYLNKKAKKKCQKASRARLHETKICEAMECGGDIENEGGAGEPEEEQAGGDGGGSAEKRSIFRNFESYSQHREDYIPPVCGVTPWSDFSPCMGPCGGHGKRQRIRKVWNNNQVYGVTDPNDDGQDPCRHIKLHEEVNCTNPSCDTIVPGFCYDELTDSPCRDNDVANFWYYDHVSDQCAIYWSDRCDTNRNKFKSKEECEETCRLPRHKQELQHDGIPAIDCLVSDWVSHSCNASCGDGFQLRTRRVLRTPKYGGKPCPKHLVRLDRCYQRCDDMYSISGRGFGERRHVVRAPQPEPQDECRYSEWSAWTPCTATCGDNAVRQRTRTLMNTDLSYKCKDRVRMEKCVMMPCQLTSNDDPERW | failed
